Experimental data as given in article PMC4169556, “Isolation of Dihydroflavonol 4-Reductase cDNA Clones from Angelonia x angustifolia and Heterologous Expression as GST Fusion Protein in Escherichia coli” (PLoS ONE, 2014).

What was measured:
[1] = substrate: O=C1c2c(O)cc(O)cc2O[C@H](c2ccc(O)c(O)c2)[C@H]1O; test: cells, lysate or membranes; format: biochemical, Angelonia angustifolia; settings: NADPH, pH 6.5, 25 °C (standard assay), yeast protein fraction, labelled compound
[2] = substrate: O=C1c2c(O)cc(O)cc2O[C@H](c2cc(O)c(O)c(O)c2)[C@H]1O; test: cells, lysate or membranes; format: biochemical, Angelonia angustifolia; settings: NADPH, pH 6.5, 25 °C (standard assay), yeast protein fraction, labelled compound

B1: Ang.DFR2 (Angelonia angustifolia) (protein)
chain: METTATQPPPPSSAAAVPATVCVTGAAGFIGSWLVMKLLQRGYNVRATVRDPGNLKKIKHLTQLPKADTNLTLWKADLMEEASFDEAIEGCQGVFHLATPMEFDSKDPENEVIKPTIEGMMSIIRSCAKAKTVEKVIFTTSAGTLNVEEHQKPFYDETSWSDLDFIYSKKMTGWMYFVSKYLAEKQAVEAAKLNNIEFISIIPPVVVGPFINPAFPPSLVTALSPITGNEAHYTIMKQGQFVHLDDICEAHIFLFEHPKADGRYICSSHDATIYDIARLIRDKWPEYNVPMEFKGIDKDIPVVRFSSKKLTSMGFKFKYSLEDMYRGAIETCREKGLLPYSTHNQSNGEKKESTLQSLEKHSDDQEKVLEKRVNGRLDKQFEEQKKELLPIREEKHTNGSLEKCSDDQAKVLLPLPEEKQTNGSLEKHVMINIKTCE
notes: full-length ORF, 437 residues; pYES2.1/V5-His-TOPO in S. cerevisiae INVSc1, protein fraction, not purified
With B1 the Km [1] was 11 µM and the Km [2] was 6.5 µM.
